Laboratory results: publication PMC2731243, “Structure and Novel Functional Mechanism of Drosophila SNF in Sex-Lethal Splicing”

Legend:
[1] = target: T1, SNF RRM1 (residues 1-104) (Drosophila melanogaster (Fruit fly), UniProt P43332); assay: NMR 1H-15N HSQC comparison of full-length SNF with isolated RRMs, plus 15N relaxation; inferred in cis from full-length SNF versus isolated domains; separate RRM1 and RRM2 were not reported as mixed in trans
T1 chain: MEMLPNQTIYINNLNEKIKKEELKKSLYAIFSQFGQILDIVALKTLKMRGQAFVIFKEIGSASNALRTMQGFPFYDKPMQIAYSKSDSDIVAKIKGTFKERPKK

SNF RRM1 [2] = target: T2, SNF RRM1 (Drosophila melanogaster, UniProt P43332 1-104); assay: SPR; n = 1.20; SPR 25 C: 10 mM HEPES pH 7.4, 150 mM NaCl, 3 mM EDTA, 0.05% P-20 (U1hpII); 50 mM PBS pH 7.0, 1 mM EDTA, 0.05% P-20 (poly(U)). EMSA: 4% native gel, protein ~1 uM, buffer by reference; conditions: protein: recombinant; tags: pET-21d(+) vector; label: biotin
T2 sequence: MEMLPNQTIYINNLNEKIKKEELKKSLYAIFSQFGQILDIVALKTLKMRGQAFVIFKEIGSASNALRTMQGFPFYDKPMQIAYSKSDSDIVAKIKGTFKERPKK

[3] = target: T3, SNF full-length (NMR, SPR) (Drosophila melanogaster, UniProt P43332 1-216); assay: SPR; n = 1.06; SPR 25 C: 10 mM HEPES pH 7.4, 150 mM NaCl, 3 mM EDTA, 0.05% P-20 (U1hpII); 50 mM PBS pH 7.0, 1 mM EDTA, 0.05% P-20 (poly(U)). EMSA: 4% native gel, protein ~1 uM, buffer by reference; conditions: protein: recombinant; tags: pET-21d(+) vector; label: biotin
T3 sequence: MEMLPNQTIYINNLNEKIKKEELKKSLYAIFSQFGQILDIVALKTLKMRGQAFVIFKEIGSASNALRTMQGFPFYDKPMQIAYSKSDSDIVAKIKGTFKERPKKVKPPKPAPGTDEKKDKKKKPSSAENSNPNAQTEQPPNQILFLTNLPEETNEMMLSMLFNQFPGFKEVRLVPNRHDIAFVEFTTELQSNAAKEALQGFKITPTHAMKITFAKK

[4] = target: T3, SNF full-length (NMR, SPR); assay: NMR titration; protein:RNA 1:15; both RRMs perturbed; SPR 25 C: 10 mM HEPES pH 7.4, 150 mM NaCl, 3 mM EDTA, 0.05% P-20 (U1hpII); 50 mM PBS pH 7.0, 1 mM EDTA, 0.05% P-20 (poly(U)). EMSA: 4% native gel, protein ~1 uM, buffer by reference; conditions: protein: recombinant; tags: pET-21d(+) vector
SNF RRM1 [5] = target: T2, SNF RRM1; assay: SPR; SPR 25 C: 10 mM HEPES pH 7.4, 150 mM NaCl, 3 mM EDTA, 0.05% P-20 (U1hpII); 50 mM PBS pH 7.0, 1 mM EDTA, 0.05% P-20 (poly(U)). EMSA: 4% native gel, protein ~1 uM, buffer by reference; conditions: protein: recombinant; tags: pET-21d(+) vector; label: biotin; hairpin

B1: SNF RRM2 (residues 134-216) (protein)
chain: AQTEQPPNQILFLTNLPEETNEMMLSMLFNQFPGFKEVRLVPNRHDIAFVEFTTELQSNAAKEALQGFKITPTHAMKITFAKK
- binding result [1]: no binding

B2: 2U-run poly(U) RNA (SPR) (ssRNA)
RNA: CCCCUCCCCUUUUUUUUUAUUUUUUUU
modifications: 5' biotin
- Kd (SNF RRM1 [2]): ~6000 nM
- Kd [3]: ~300 nM

B3: 2U-run (NMR) (ssRNA)
RNA: UUUUUUUUAUUUUUUUUU
- binding result [4]: binds

B4: U1hpII (SPR) (structured_RNA)
RNA: GGCUUGGCCAUUGCACCUCGGCUGAGUU
modifications: 5' biotin
- Kd (SNF RRM1 [5]): ~4.4 nM
